# According to the supplement of paper PMC7125110:
# ± gives the standard error. Variants at the floor of the assay were thinned out.
# B1: glmS ribozyme (parent)
# chain: AUAAAAGCGCCAGAACUACAGAAAUGUAGUUGACGAGGAGGAGGUUUAUCGAAUUUUCGGCGGAUGCCUCCAAA
# How the values were obtained:
# Conditions in all cases: with glucosamine-6-phosphate
# [1] = variants of: B1; assay: self-cleavage kobs at 40 uM GlcN6P; higher = faster cleavage; RNA array
# How it was run: (§1)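 A hybridised Cy3 probe tracked barcoded ribozyme variants, transcribed in situ by E. coli RNA polymerase on sequenced MiSeq chips, at 37 °C. The variants received 40 μM to 10 mM glucosamine-6-phosphate in HEPES/KCl/Mg(OAc)2 buffer. kobs came from decay fits and kcat and KM from weighted Michaelis–Menten fits.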
# [2] = variants of: B1; assay: self-cleavage kobs at 160 uM GlcN6P; higher = faster cleavage; RNA array
# How it was run: as §1
# [3] = variants of: B1; assay: self-cleavage kobs at 640 uM GlcN6P; higher = faster cleavage; RNA array
# How it was run: as §1
# [4] = variants of: B1; assay: self-cleavage kobs at 2500 uM GlcN6P; higher = faster cleavage; RNA array
# How it was run: as §1
# [5] = variants of: B1; assay: self-cleavage kobs at 10000 uM GlcN6P; higher = faster cleavage; RNA array
# How it was run: as §1
Variant,self-cleavage kobs at 40 uM GlcN6P [1] [s⁻¹],self-cleavage kobs at 160 uM GlcN6P [2] [s⁻¹],self-cleavage kobs at 640 uM GlcN6P [3] [s⁻¹],self-cleavage kobs at 2500 uM GlcN6P [4] [s⁻¹],self-cleavage kobs at 10000 uM GlcN6P [5] [s⁻¹]
G35C U65C,< 1e-05,< 1e-05,< 1e-05,< 1e-05,< 1e-05
C34A U45G,< 1e-05,< 1e-05,< 1e-05,< 1e-05,< 1e-05
A36C U69G,4.49e-05 ± 1.6e-05,0.000114 ± 3.7e-05,0.000391 ± 9.8e-05,0.0001 ± 2e-05,3.45e-05 ± 1e-05
G35A U57G,< 1e-05,,,,
A33U U56A U65A,< 1e-05,,,,
C34G G51C,< 1e-05,,< 1e-05,,< 1e-05
G35A U46A,< 1e-05,< 1e-05,< 1e-05,< 1e-05,< 1e-05
A33U C67G,< 1e-05,< 1e-05,< 1e-05,,
A36U C61A C67U,5.22e-05 ± 2.3e-05,,,,
A36G U56A,< 1e-05,,< 1e-05,,
C34A G37U,< 1e-05,< 1e-05,,< 1e-05,
C34A C61A G63U,< 1e-05,,,,< 1e-05
G35C C50A,< 1e-05,< 1e-05,< 1e-05,< 1e-05,< 1e-05
G35U A52C,< 1e-05,,,,< 1e-05
C34U A39G,< 1e-05,< 1e-05,< 1e-05,< 1e-05,< 1e-05
C34G G35C,< 1e-05,,,,
A33G G40U U49C,< 1e-05,,,,< 1e-05
A33U G60A,< 1e-05,< 1e-05,< 1e-05,,
C34A G44A,< 1e-05,< 1e-05,< 1e-05,< 1e-05,< 1e-05
C34U U65A,< 1e-05,< 1e-05,< 1e-05,,< 1e-05
C34U U65C,< 1e-05,< 1e-05,< 1e-05,< 1e-05,< 1e-05
G35U G59C,< 1e-05,< 1e-05,< 1e-05,< 1e-05,< 1e-05
A33U A48U,< 1e-05,< 1e-05,< 1e-05,,< 1e-05

Variant,self-cleavage kobs at 40 uM GlcN6P [1] [s⁻¹],self-cleavage kobs at 160 uM GlcN6P [2] [s⁻¹],self-cleavage kobs at 640 uM GlcN6P [3] [s⁻¹],self-cleavage kobs at 2500 uM GlcN6P [4] [s⁻¹],self-cleavage kobs at 10000 uM GlcN6P [5] [s⁻¹]
A33G G51A,< 1e-05,< 1e-05,,< 1e-05,< 1e-05
C34A A39G A48U C68A,< 1e-05,< 1e-05,,< 1e-05,< 1e-05
C34A U56C G63A,< 1e-05,,,,< 1e-05
G35A U56C C58U,< 1e-05,,,,< 1e-05
G35A G44U U65A C70G,< 1e-05,< 1e-05,,< 1e-05,
G35U C61U U65G,< 1e-05,,,,
C34U A53G,< 1e-05,,,,< 1e-05
G35C G60A,< 1e-05,,< 1e-05,,< 1e-05
A33G G66A,< 1e-05,< 1e-05,,,< 1e-05
G35C U57A,< 1e-05,< 1e-05,< 1e-05,< 1e-05,
G37A C50A G59A G66A,< 1e-05,,,,
A36G A64U U65G,< 1e-05,,< 1e-05,< 1e-05,< 1e-05
C34A G62A,< 1e-05,< 1e-05,< 1e-05,< 1e-05,< 1e-05
C34G U65C,< 1e-05,,< 1e-05,,< 1e-05
G35C A48G A52C C70G,< 1e-05,,,,
G35U G37A,< 1e-05,,< 1e-05,< 1e-05,
C34A A48C,< 1e-05,,,< 1e-05,< 1e-05
G35U C67G C71A,< 1e-05,,,,
C34G G41C,< 1e-05,< 1e-05,,< 1e-05,< 1e-05
C34G G41A,< 1e-05,< 1e-05,< 1e-05,,< 1e-05
A33U C50G C71G,0.000128 ± 2.3e-05,,,,0.0002 ± 4.2e-05
G35A A48U C71U,< 1e-05,,,,
A36G G41C G43C A48G,< 1e-05,,,< 1e-05,< 1e-05

Variant,self-cleavage kobs at 40 uM GlcN6P [1] [s⁻¹],self-cleavage kobs at 160 uM GlcN6P [2] [s⁻¹],self-cleavage kobs at 640 uM GlcN6P [3] [s⁻¹],self-cleavage kobs at 2500 uM GlcN6P [4] [s⁻¹],self-cleavage kobs at 10000 uM GlcN6P [5] [s⁻¹]
A33U G62C,< 1e-05,,< 1e-05,,
C34A C71A,< 1e-05,,< 1e-05,,< 1e-05
G35C U46C,< 1e-05,,< 1e-05,< 1e-05,
A36C A42U,< 1e-05,,,,
A36U A39U C50U C61G U65A,< 1e-05,,,,< 1e-05
C34U U57C C58U,< 1e-05,,,< 1e-05,< 1e-05
C34U C58G C68U,0.000265 ± 9.2e-05,,,,0.000425 ± 0.00014
G37A A52U G59A G60A,< 1e-05,,,,
G35U G51A U54G,< 1e-05,,,,< 1e-05
G35U G62A,< 1e-05,< 1e-05,< 1e-05,< 1e-05,< 1e-05
A36U U49C,< 1e-05,< 1e-05,< 1e-05,,< 1e-05
A33G U45C,< 1e-05,,< 1e-05,< 1e-05,
A33G U65G,< 1e-05,< 1e-05,< 1e-05,< 1e-05,< 1e-05
A33U G37U C50G U69A,8.34e-05 ± 2.3e-05,,,,0.000105 ± 2.5e-05
A36U U47G C70G,6.62e-05 ± 2.4e-05,,,,4.91e-05 ± 1.4e-05
C34G G43C,< 1e-05,< 1e-05,< 1e-05,< 1e-05,
A36C G41U U45G C67G,< 1e-05,,,,< 1e-05
A33U C70A,< 1e-05,,,,
A33U A52C,< 1e-05,< 1e-05,,,< 1e-05
G35C A36G G37A A39G U65A,< 1e-05,,,,< 1e-05
C34U G60U,< 1e-05,< 1e-05,< 1e-05,< 1e-05,< 1e-05
G35U A48G,< 1e-05,< 1e-05,< 1e-05,,< 1e-05
C34A G43C A48G,< 1e-05,,,,

Variant,self-cleavage kobs at 40 uM GlcN6P [1] [s⁻¹],self-cleavage kobs at 160 uM GlcN6P [2] [s⁻¹],self-cleavage kobs at 640 uM GlcN6P [3] [s⁻¹],self-cleavage kobs at 2500 uM GlcN6P [4] [s⁻¹],self-cleavage kobs at 10000 uM GlcN6P [5] [s⁻¹]
A33U C34U G60U,< 1e-05,,,,
A33G U56A,< 1e-05,< 1e-05,< 1e-05,,< 1e-05
G37A C50U,< 1e-05,< 1e-05,,< 1e-05,
G35A U45A C61A G62C,< 1e-05,,,,
C34G G37A G44C C50G A53G G66U,< 1e-05,,,,< 1e-05
G35C A48G C50A,< 1e-05,,,,
G35A U45A C67U,< 1e-05,,,,< 1e-05
A36U U49G U65A,< 1e-05,,,,
A36G C58U C70U,< 1e-05,< 1e-05,< 1e-05,,
C34A G41A U65G,< 1e-05,,,,
G35A A53C,< 1e-05,< 1e-05,< 1e-05,,< 1e-05
A36G U45G G51U U54C U56A C68A,< 1e-05,,,,
G35U U46A C58U,< 1e-05,< 1e-05,,< 1e-05,< 1e-05
C34U C61A C67U,0.00014 ± 3.8e-05,,0.000388 ± 0.00011,5.38e-05 ± 2.6e-05,0.000236 ± 6.1e-05
C34U G59A,< 1e-05,,< 1e-05,< 1e-05,
G35C G66C,< 1e-05,< 1e-05,< 1e-05,< 1e-05,< 1e-05
G35C G66A,< 1e-05,,,< 1e-05,< 1e-05
G35U C61A,< 1e-05,,< 1e-05,< 1e-05,< 1e-05
C34A G43C,< 1e-05,< 1e-05,< 1e-05,,< 1e-05
G37A G51C,< 1e-05,< 1e-05,< 1e-05,< 1e-05,< 1e-05
A36C G41U G51A G60U,< 1e-05,,< 1e-05,< 1e-05,
A33U C61U C70G,< 1e-05,,,,
A36G A39U G43C C61G,< 1e-05,,,,
